Where no end group is shown, it is not given here. Fuc = fucose (fucosylation)
How the values were obtained:
[1] = target: Baculovirus-derived recombinant human urokinase receptor, truncated soluble molecule, biotinylated (human) (UniProt Q03405); experiment: phage panning on biotinylated soluble uPAR on streptavidin plates; eluted cfu as a percentage of input; control phage
[2] = target: Baculovirus-derived recombinant human urokinase receptor, truncated soluble molecule, biotinylated (human) (UniProt Q03405); experiment: phage panning on biotinylated soluble uPAR on streptavidin plates; eluted cfu as a percentage of input; control phagemid
uPAR = uPAR (Homo sapiens, UniProt Q03405); settings: cited from earlier work
uPAR, sequence (Q03405 23-335): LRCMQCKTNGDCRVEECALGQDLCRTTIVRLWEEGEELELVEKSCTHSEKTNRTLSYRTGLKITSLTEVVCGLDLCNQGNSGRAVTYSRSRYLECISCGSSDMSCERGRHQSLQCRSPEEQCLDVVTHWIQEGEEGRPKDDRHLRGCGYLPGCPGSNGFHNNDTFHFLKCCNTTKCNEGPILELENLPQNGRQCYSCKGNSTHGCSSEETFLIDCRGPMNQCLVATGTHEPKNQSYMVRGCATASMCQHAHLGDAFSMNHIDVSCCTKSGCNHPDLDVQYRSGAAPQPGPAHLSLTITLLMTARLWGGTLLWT

[3] = target: Baculovirus-derived recombinant human urokinase receptor, truncated soluble molecule, biotinylated (human) (UniProt Q03405); experiment: phage panning on biotinylated soluble uPAR on streptavidin plates; eluted cfu as a percentage of input
[4] = tested on: SaOS-2 osteosarcoma cell line; settings: cited from earlier work
[5] = target: Baculovirus-derived recombinant human urokinase receptor, truncated soluble molecule, biotinylated (human, UniProt Q03405, biotinylated with NHS-biotin); experiment: radio-receptor competition assay: 125I-ATF tracer on biotinylated soluble uPAR immobilised on streptavidin plates
Protocol: Baculovirus-derived recombinant human urokinase receptor was expressed as a truncated, soluble molecule as described previously for mouse L-cells (Masucci et al., *J Biol Chem* (1991) 266:8655). The purified receptor was biotinylated with NHS-biotin, and immobilized at 1 μg/mL in PBS/0.1% BSA on streptavidin coated 96-well plates. Human uPA ATF (residues 1–135, obtained from M. Shuman, University of California, San Francisco) was iodinated using the Iodogen method (Pierce), and used as tracer. The ^125I-ATF was incubated at 100–500 pM with increasing amounts of huPA_1-48 in triplicate (100 pM-1 μM) for 2 hours at room temperature in 0.1% BSA/PBS in a total volume of 200 μL. The plates were then washed 3 times with PBS/BSA, and the remaining bound radioactivity determined.

Molecule: LP67 control phage (ampicillin-resistant M13)
- % Yield (+uPAR) [1]: 0.0099%

Molecule: Phagemid pGMEGF displaying M1-FLAG-EGF-medium long pIII (from UniProt P01133)
- % Yield (+uPAR) [2]: 0.0012%

Molecule: uPA12-32: the critical domain alone, residues 12-32 of uPA (Appella et al.) (DCLNGGTCVSNKYFSNIHWCN; UniProt P00749 32-52, looked up, fragment)
- affinity relative to intact ATF (fold less) (uPAR; compared with intact ATF): about 100 fold
- Kd (uPAR; critical domain alone, read-out: affinity for uPAR): 0.04 µM

Molecule: Phagemid pHM3a displaying Glu-tag-UPAELD-short pIII (Glutag-uPA1-48) (from UniProt P00749)
- % Yield (+uPAR) [3]: 0.08%

Molecule: Phagemid pHM1a displaying M1-FLAG-UPAELD-short pIII (M1Flag-uPA1-48) (from UniProt P00749)
- % Yield (+uPAR) [3]: 0.094%

Molecule: fucosylated EGF-like domain: fucosylated EGF-like domain (uPA4-43, produced by cleavage from pro-uPA) (LHQVPSNCDCLNGGT(Fuc)CVSNKYFSNIHWCNCPKKFGGQHCE; cysteine pairing not given here; UniProt P00749 24-63, looked up, fragment)
- mitogenic activity [4]: mitogenic

B1: huPA1-48 (residues 1-48 of mature human urokinase-type plasminogen activator, non-fucosylated, secreted from yeast) (ligand)
chain: SNELHQVPSNCDCLNGGTCVSNKYFSNIHWCNCPKKFGGQHCEIDKSK
modifications: ends and bridges not checked; cysteine pairing not given here
- Kd [5]: 0.0003 µM

Reference: patent publication US6248715A, “Method of treating a urokinase-type plasminogen activator-mediated disorder” (Chiron Corporation, priority 1995, dated 2001)
